The target in experiment [1] is mouse KLB and mouse FGFR1c co-expressed on HEK293/mKLB/mFGFR1c/SRE-Luc cells (mouse). In words: cell-based or functional assay.
Experiment [2] addresses T1, extracellular domain of human FGFR1c expressed with C-terminal V5 and hexahistidine tags (human, UniProt P11362 22-376).
T1 construct: also called hFGFR1c-V5-6His
T1 sequence: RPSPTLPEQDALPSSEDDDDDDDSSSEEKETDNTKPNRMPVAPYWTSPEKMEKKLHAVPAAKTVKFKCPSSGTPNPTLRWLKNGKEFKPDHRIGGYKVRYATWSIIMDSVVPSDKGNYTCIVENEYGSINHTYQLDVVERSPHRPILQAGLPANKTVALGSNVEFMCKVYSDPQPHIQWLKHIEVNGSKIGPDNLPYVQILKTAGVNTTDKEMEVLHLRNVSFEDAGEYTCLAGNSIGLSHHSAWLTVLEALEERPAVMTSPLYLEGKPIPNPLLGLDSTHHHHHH
Nature of the experiment: SPR, mAb captured, 25 C. The essentials:
(§1)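 Surface plasmon resonance with Fc-capture of each monoclonal antibody. Running buffer was 0.01M HEPES pH 7.4, 0.15M NaCl, 3mM EDTA, 0.05% v/v Surfactant P20. Rate constants fit to a 1:1 model yielded KD.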

Experiment [3] deals with T2, extracellular domain of human KLB expressed with C-terminal HA and hexahistidine tags (human, UniProt Q86Z14 1-996).
T2 construct: also called hKLB-HA-6His; hKLB-HA-6his
T2 sequence: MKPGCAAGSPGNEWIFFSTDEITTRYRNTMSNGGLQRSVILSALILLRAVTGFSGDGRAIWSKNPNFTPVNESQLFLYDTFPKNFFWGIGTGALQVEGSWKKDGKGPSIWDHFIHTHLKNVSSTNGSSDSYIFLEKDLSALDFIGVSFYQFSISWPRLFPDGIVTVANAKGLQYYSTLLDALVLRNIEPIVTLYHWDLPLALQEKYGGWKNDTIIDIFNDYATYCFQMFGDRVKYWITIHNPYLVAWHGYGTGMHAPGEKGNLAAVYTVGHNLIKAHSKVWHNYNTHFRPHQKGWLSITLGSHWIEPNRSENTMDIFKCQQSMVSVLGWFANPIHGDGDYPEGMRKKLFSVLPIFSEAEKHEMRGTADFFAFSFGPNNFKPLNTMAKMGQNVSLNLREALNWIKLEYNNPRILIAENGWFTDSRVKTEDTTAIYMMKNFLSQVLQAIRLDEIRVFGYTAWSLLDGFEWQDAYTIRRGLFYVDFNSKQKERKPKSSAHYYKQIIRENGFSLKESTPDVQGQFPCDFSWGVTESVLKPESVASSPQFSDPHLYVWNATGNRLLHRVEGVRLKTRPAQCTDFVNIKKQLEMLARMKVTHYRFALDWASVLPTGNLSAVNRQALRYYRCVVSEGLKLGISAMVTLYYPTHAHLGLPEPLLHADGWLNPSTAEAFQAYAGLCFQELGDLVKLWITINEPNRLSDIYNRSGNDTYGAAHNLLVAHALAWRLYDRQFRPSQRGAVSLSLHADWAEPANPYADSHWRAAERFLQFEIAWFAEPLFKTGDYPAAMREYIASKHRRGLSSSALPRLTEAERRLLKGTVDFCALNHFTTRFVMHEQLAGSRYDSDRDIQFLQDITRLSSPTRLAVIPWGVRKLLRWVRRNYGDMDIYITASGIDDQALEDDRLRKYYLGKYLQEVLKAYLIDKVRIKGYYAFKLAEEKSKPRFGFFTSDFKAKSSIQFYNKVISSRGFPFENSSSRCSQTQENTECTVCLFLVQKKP
Nature of the experiment: SPR, mAb captured, 25 C. The essentials: as §1
A general note: In SPR one partner is held on a chip, and binding of the other changes the refractive index at the surface.

For experiment [4], the target named is T3, human KLB and human FGFR1c co-expressed on HEK293/hKLB/hFGFR1c/SRE-luc cells (human, UniProt Q86Z14 1-1044; P11362 22-822). In words: cell-based or functional assay.
The target in experiment [5] is T1, extracellular domain of human FGFR1c …. Nature of the experiment: SPR, mAb captured, 37 C. The essentials: as §1
In experiment [6] the target is T2, extracellular domain of human KLB …. In words: SPR, mAb captured, 37 C. The essentials:
as §1

The target in experiment [7] is T3, human KLB and human FGFR1c co-expressed …. Nature of the experiment: cell-based or functional assay. The source holds these as a separate data set.
Experiment [8] shares this target. Nature of the experiment: cell-based or functional assay. The source holds these as a separate data set.
Target sequence in this assay (P11362 other isoform, or with tags, fused parts or gaps limits assumed): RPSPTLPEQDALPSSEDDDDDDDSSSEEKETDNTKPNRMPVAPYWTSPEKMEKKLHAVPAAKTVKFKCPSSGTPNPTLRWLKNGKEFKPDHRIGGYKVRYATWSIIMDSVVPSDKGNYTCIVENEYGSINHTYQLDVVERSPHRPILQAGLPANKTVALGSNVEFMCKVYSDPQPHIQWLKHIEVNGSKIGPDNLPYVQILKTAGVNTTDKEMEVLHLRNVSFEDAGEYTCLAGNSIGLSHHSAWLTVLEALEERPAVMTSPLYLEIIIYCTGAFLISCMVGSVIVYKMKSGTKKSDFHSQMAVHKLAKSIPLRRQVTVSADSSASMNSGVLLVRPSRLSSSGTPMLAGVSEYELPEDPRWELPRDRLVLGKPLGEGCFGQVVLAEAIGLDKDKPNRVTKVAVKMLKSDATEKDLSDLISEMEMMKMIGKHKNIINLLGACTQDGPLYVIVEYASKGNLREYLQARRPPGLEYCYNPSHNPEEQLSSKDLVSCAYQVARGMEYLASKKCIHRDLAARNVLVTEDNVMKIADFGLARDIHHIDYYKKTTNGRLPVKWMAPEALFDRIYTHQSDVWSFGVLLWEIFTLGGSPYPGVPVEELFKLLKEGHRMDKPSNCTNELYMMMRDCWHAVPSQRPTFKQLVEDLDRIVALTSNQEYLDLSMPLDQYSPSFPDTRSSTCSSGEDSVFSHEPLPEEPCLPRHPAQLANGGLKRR

Positions count from the first letter of the chain named. In names and notes the source's numbering stands.

B1: H4H8880P (antibody, V domains shown)
VH: EVQLVESGGGVVQPGGSLRLSCAASGFTFSLYAMSWVRQAPGKGLEWVSAISGSAHGAYYADSVKGRFTISRDNSKNSLYLQMNSLRAEDTAIYYCAKDLVIAVAGTFDYWGQGTLVTVSS
VL: DIQMTQSPSSLSASVGDRVTITCRASQIISTYLNWYQQKPGKAPKILIYTASSLKSGVPSRFSGSGSGTDFTLTISSLQPEDFATYYCQQTYSSPRFTFGPGTKVDIK
notes: human IgG4 Fc (H4H prefix)
One may read the Kd as the free concentration of one partner at which half of the binding sites on the other are occupied at equilibrium, for simple one-to-one binding. Low readings indicate tighter binding, high ones weaker binding. As usually defined, the koff is a measure of how fast the partners let go of each other. Read a low koff as a long-lived complex. The kon is the second-order rate constant of association. Turning to B1, in experiment [1], the “Maximum Activation (%) without ligand” value is 2% and the “Maximum Inhibition (%) of 0.8 nM mFGF21” value is 16%. For the same molecule, in experiment [2], the “180 nM hFGFR1c-V5-6His Bind (RU)” value is 0.4 RU and the binding result is recorded as “no binding (tested: 180 nM)”. Further, in experiment [3], the “20 nM hKLB-HA-6His Bind (RU)” value was found to be 68.1 RU, the Kd was 0.64 nM, the koff turned out to be 0.000287 s⁻¹ and the kon was found to be 448000 M⁻¹ s⁻¹. The molecule further returned a t1/2 in experiment [3] of 40.3 min. Besides, in experiment [4], the “IC50, inhibition of 1 nM hFGF21” value is 0.15 nM and the “Maximum Inhibition (%) of 1 nM hFGF21” value is 39%. Further, in experiment [5], the “180 nM hFGFR1c-V5-6His Bind (RU)” value was 0.1 RU. In experiment [6], the “20 nM hKLB-HA-6His Bind (RU)” value was determined as 148 RU, binding was characterised by a dissociation constant (Kd) of 0.945 nM, the koff is 0.000526 s⁻¹ and the kon was 556000 M⁻¹ s⁻¹. Moreover, in experiment [6], the t1/2 was 22 min. Moreover, in experiment [7], the “EC50, SRE-luc activation without ligand” value came to 0.054 nM and the “Maximum Activation (%) without ligand” value was found to be 1%.

B2: H1H8897P (antibody, V domains shown)
VH: QVQLVESGGGLVKPGGSLRLSCAAAGFTFSDYYMSWIRQAPGQGLEWVSYISPSGSTTYYADSVQGRFTISRDNAKSSLYLQMNSLRAEDTAVYYCARTGIQLWSVYFDYWGQGTLVTVSS
VL: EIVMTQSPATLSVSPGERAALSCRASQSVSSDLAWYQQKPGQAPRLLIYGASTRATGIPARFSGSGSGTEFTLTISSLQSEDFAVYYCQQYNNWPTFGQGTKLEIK
notes: H1H Fc prefix (human Fc)
B2: in experiment [1], the “Maximum Activation (%) without ligand” value was determined as 3% and the “Maximum Inhibition (%) of 0.8 nM mFGF21” value was determined as 50%. Besides, in experiment [2], the “180 nM hFGFR1c-V5-6His Bind (RU)” value is 0.9 RU and the binding result was “no binding (tested: 180 nM)”. For the same molecule, the “20 nM hKLB-HA-6His Bind (RU)” value in experiment [3] was -0.4 RU. For the same molecule, in experiment [4], the “IC50, inhibition of 1 nM hFGF21” value is 0.97 nM and the “Maximum Inhibition (%) of 1 nM hFGF21” value stood at 101%. Moreover, in experiment [5], the “180 nM hFGFR1c-V5-6His Bind (RU)” value amounted to 0.7 RU. Moreover, the “20 nM hKLB-HA-6His Bind (RU)” value in experiment [6] came out at 1.9 RU. For the same molecule, in experiment [7], the “EC50, SRE-luc activation without ligand” value came to 19 nM and the “Maximum Activation (%) without ligand” value was found to be 1%.

B3: H1H8898P (antibody, V domains shown)
VH: B2 VH with A25S, T28I, Q43K, E46D, V48I, T58I, Q65K, S77N, E89D
VL: EIVMTQSPATLSVSPGERATLSCRASQSVGSNLAWYQQKPGQAPRLLIYGASTRANGIPARFSGSGSGTEFTLTISGLQSEDFAVYYCQQYNNWPTFGQGTKLEIK
notes: H1H Fc prefix (human Fc)
Take B3: in experiment [1], the “Maximum Activation (%) without ligand” value worked out at 2% and the “Maximum Inhibition (%) of 0.8 nM mFGF21” value was found to be 29%. In experiment [2], the “180 nM hFGFR1c-V5-6His Bind (RU)” value was 2.9 RU and the binding result is given as “no binding (tested: 180 nM)”. In addition, in experiment [3], the “20 nM hKLB-HA-6His Bind (RU)” value is -0.2 RU. For the same molecule, in experiment [4], the “IC50, inhibition of 1 nM hFGF21” value was determined as 2 nM and the “Maximum Inhibition (%) of 1 nM hFGF21” value worked out at 97%. The “180 nM hFGFR1c-V5-6His Bind (RU)” value in experiment [5] was 0.4 RU. Also, in experiment [6], the “20 nM hKLB-HA-6His Bind (RU)” value was -1.9 RU. Further, in experiment [7], the “EC50, SRE-luc activation without ligand” value is 8.9 nM and the “Maximum Activation (%) without ligand” value turned out to be 3%.

B4: H2aM8098N (antibody, V domains shown)
VH: QLQLQESGPGLVKPSETLSLTCTVSGGSISSSNYYWDWIRQTPEKGLEWIGSIHYSGTSYYNPSLKSRVTISVDTSKNQFSLKLRSVTAADAAVYYCARQTSVYWYFDIWGHGTLVTVST
VL: EIVLTQSPGTLSLSPGEGATLSCRASQSVRNNYLAWYQQKPGQAPRLLIYGASSRAIGIPDRFSGSGSGTDFTLTISRLEPKDFVVYYCQQYGGSLFTFGPGTKVDIK
notes: mouse IgG2 Fc (H2aM prefix)
Regarding B4, in experiment [2], the “180 nM hFGFR1c-V5-6His Bind (RU)” value is -0.9 RU. In addition, in experiment [3], the “20 nM hKLB-HA-6His Bind (RU)” value was found to be 2.7 RU. Besides, in experiment [4], the “IC50, inhibition of 1 nM hFGF21” value turned out to be 15 nM and the “Maximum Inhibition (%) of 1 nM hFGF21” value was 62%. Moreover, the “180 nM hFGFR1c-V5-6His Bind (RU)” value in experiment [5] was -1.4 RU. The “20 nM hKLB-HA-6His Bind (RU)” value in experiment [6] was 3.9 RU. In addition, in experiment [7], the “EC50, SRE-luc activation without ligand” value came to 23 nM and the “Maximum Activation (%) without ligand” value came out at 1%.

B5: H4H8870P (antibody, V domains shown)
VH: EVQLVESGGGVVRPGGSLRLSCAASGFKFDVYGMSWVRQLPGKGLEWVSGISWTGGSSGYADSVKGRFTISRDNGKKSLYLQMNSLRAEDTALYYCTREEDYWGQGTLVTVSS
VL: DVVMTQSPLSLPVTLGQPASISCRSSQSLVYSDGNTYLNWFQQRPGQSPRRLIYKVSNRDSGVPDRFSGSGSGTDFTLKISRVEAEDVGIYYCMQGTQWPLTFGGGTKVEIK
notes: human IgG4 Fc (H4H prefix)
As for B5, the “Maximum Inhibition (%)” value in experiment [8] worked out at 10%. For the same molecule, in experiment [2], the “180 nM hFGFR1c-V5-6His Bind (RU)” value was 6.9 RU, binding was characterised by a dissociation constant (Kd) of 197 nM, the koff amounted to 0.0432 s⁻¹ and the kon turned out to be 219000 M⁻¹ s⁻¹. Also, in experiment [2], the t1/2 came to 0.27 min. Besides, the “20 nM hKLB-HA-6His Bind (RU)” value in experiment [3] was -0.6 RU. In experiment [5], the “180 nM hFGFR1c-V5-6His Bind (RU)” value amounted to 10.6 RU; the affinity, expressed as Kd, was 301 nM; the koff was found to be 0.0795 s⁻¹; the kon was found to be 264000 M⁻¹ s⁻¹. Also, in experiment [5], the t1/2 came to 0.1 min. Further, the “20 nM hKLB-HA-6His Bind (RU)” value in experiment [6] was -0.8 RU.

B6: H2aM8091N (antibody, V domains shown)
VH: QVQLVQSGADMKKPGASVKVSCKASGYTFTTYGINWVRQAPGQGLEWMGWISAYSGITNYAQSFQGRVTMTTDTSTSTAYMELRSLRSDDTAVYYCARGGYNWATGDYFDYWGQGTLVTVSS
VL: DIQMTQSPSTLSASIGDRVTITCRASQSISSWLAWYQQKPGKAPKFLIYKASSLASGVPSRFSGSGSGTEFTLTISSLQPDDFATYYCQQYDSYSPYTFGQGTKVEIK
notes: mouse IgG2 Fc (H2aM prefix); also called H2M8091N
Take B6: the “Maximum Inhibition (%) of 0.8 nM mFGF21” value in experiment [1] was found to be 90%. The “180 nM hFGFR1c-V5-6His Bind (RU)” value in experiment [2] was -0.8 RU. In addition, in experiment [3], the “20 nM hKLB-HA-6His Bind (RU)” value was -2 RU. Also, in experiment [4], the “IC50, inhibition of 1 nM hFGF21” value is 1.5 nM and the “Maximum Inhibition (%) of 1 nM hFGF21” value came to 106%. Besides, the “180 nM hFGFR1c-V5-6His Bind (RU)” value in experiment [5] is -1.3 RU. Also, in experiment [6], the “20 nM hKLB-HA-6His Bind (RU)” value is -2.3 RU. In experiment [7], the “EC50, SRE-luc activation without ligand” value was found to be 3.6 nM and the “Maximum Activation (%) without ligand” value came to 1%.

The values are drawn from patent US20170174769A1 (Regeneron, published 2017).
